Assays:
M. hassiacum OctT = M. hassiacum OctT (Mycolicibacterium hassiacum, UniProt K5BJH8); assay: CoA release with DTNB at […] nm; type: biochemical; conditions: DGG 20 mM, Oct-CoA 80 μM; product inhibition; enzyme species not given, M. hassiacum inferred from the characterisation
[1] = molecular target: M. tuberculosis OctT (Rv2418c) (Mycobacterium tuberculosis, UniProt P71725)
purified protein [2] = substrate: CCCCCCCC(=O)SCCNC(=O)CCNC(=O)[C@H](O)C(C)(C)COP(=O)(O)OP(=O)(O)OC[C@H]1O[C@@H](n2cnc3c(N)ncnc32)[C@H](O)[C@@H]1OP(=O)(O)O; assay: purified protein; type: biochemical, Mycolicibacterium hassiacum; conditions: apparent, DGG 20 mM, 50 mM BTP, 37 °C, substrate inhibition above 100 μM
purified protein [3] = substrate: O=C(O)[C@@H](CO)O[C@H]1O[C@H](CO)[C@@H](O)[C@H](O)[C@H]1O; assay: purified protein; type: biochemical, Mycolicibacterium hassiacum; conditions: apparent, Oct-CoA 100 μM, 50 mM BTP, 37 °C
purified protein [4] = substrate: O=C(O)[C@@H](CO)O[C@H]1O[C@H](CO[C@H]2O[C@H](CO)[C@@H](O)[C@H](O)[C@H]2O)[C@@H](O)[C@H](O)[C@H]1O; assay: purified protein; type: biochemical, Mycolicibacterium hassiacum; conditions: apparent, Oct-CoA 100 μM, 50 mM BTP, 37 °C
purified protein [5] = substrate: CCCCCC(=O)SCCNC(=O)CCNC(=O)[C@H](O)C(C)(C)COP(=O)(O)OP(=O)(O)OC[C@H]1O[C@@H](n2cnc3c(N)ncnc32)[C@H](O)[C@@H]1OP(=O)(O)O; assay: purified protein; type: biochemical, Mycolicibacterium hassiacum; conditions: apparent, DGG 20 mM, 50 mM BTP, 37 °C, substrate inhibition above 100 μM
purified protein [6] = substrate: CCCCCCCC(=O)SCCNC(=O)CCNC(=O)[C@H](O)C(C)(C)COP(=O)(O)OP(=O)(O)OC[C@H]1O[C@@H](n2cnc3c(N)ncnc32)[C@H](O)[C@@H]1OP(=O)(O)O; assay: purified protein; type: biochemical, Mycolicibacterium smegmatis; conditions: apparent, DGG 45 mM, 50 mM BTP, 37 °C, substrate inhibition above 100 μM
purified protein [7] = substrate: O=C(O)[C@@H](CO)O[C@H]1O[C@H](CO)[C@@H](O)[C@H](O)[C@H]1O; assay: purified protein; type: biochemical, Mycolicibacterium smegmatis; conditions: apparent, Oct-CoA 100 μM, 50 mM BTP, 37 °C
purified protein [8] = substrate: O=C(O)[C@@H](CO)O[C@H]1O[C@H](CO[C@H]2O[C@H](CO)[C@@H](O)[C@H](O)[C@H]2O)[C@@H](O)[C@H](O)[C@H]1O; assay: purified protein; type: biochemical, Mycolicibacterium smegmatis; conditions: apparent, Oct-CoA 100 μM, 50 mM BTP, 37 °C

M. tuberculosis OctT (Rv2418c), sequence (P71725 whole entry): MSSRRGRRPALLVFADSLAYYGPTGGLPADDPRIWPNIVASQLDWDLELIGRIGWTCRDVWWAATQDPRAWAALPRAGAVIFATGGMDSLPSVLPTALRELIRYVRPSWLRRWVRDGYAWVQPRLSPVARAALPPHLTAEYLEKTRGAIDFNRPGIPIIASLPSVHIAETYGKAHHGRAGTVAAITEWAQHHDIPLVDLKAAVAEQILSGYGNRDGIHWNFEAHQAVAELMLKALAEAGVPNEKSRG

Molecule: CCCCCCCC(=O)OC[C@H]1O[C@H](OC[C@H]2O[C@H](O[C@H](CO)C(=O)O)[C@H](O)[C@@H](O)[C@@H]2O)[C@H](O)[C@@H](O)[C@@H]1O [compound 1]
- % loss of activity at 400 μM (M. hassiacum OctT): 22%

Molecule: O=C(O)[C@@H](CO)O[C@H]1O[C@H](CO[C@H]2O[C@H](CO)[C@@H](O)[C@H](O)[C@H]2O)[C@@H](O)[C@H](O)[C@H]1O [DGG, (2R)-2-O-α-D-glucopyranosyl-(1→6)-α-D-glucopyranosyl-2,3-dihydroxypropanoate]
- preparative conversion, TLC and NMR of product [1]: natural Oct-DGG produced by the M. tuberculosis, M. hassiacum and M. smegmatis recombinant OctT enzymes

B1: M. hassiacum OctT (Mycolicibacterium hassiacum DSM 44199) (protein)
chain: MSGRRPTLLVFCDSLSYYGPRGGLPADDPRIWPNIVASQLDWDVELIGRVGWTSRDVWWAATQDPRAWAALPRAGAVIFATGGMDSLPSPLPTALRELIRYIRPPWLRRRVRDLYGWLQPRLSPVSRNALPPHLTAEYLEMTRGAIDFNRPGIPVVAALPSVHIADSYGRAHHGREATARAITEWARQHGVVLVDLKAAVADQVLNGRGNPDGIHWNFEAHQAVAELMLKALAEAGVPCR
- Km (purified protein [2]): 0.06 ± 0.01 mM
- kcat/Km (purified protein [2]): 31.7 ± 6.67 M⁻¹ s⁻¹
- Km (purified protein [3]): 6.6 ± 0.78 mM
- kcat/Km (purified protein [3]): 0.05 ± 0.00667 M⁻¹ s⁻¹
- Km (purified protein [4]): 9.5 ± 0.8 mM
- kcat/Km (purified protein [4]): 0.167 M⁻¹ s⁻¹
- kcat/Km (purified protein [5]): 35 ± 10 M⁻¹ s⁻¹

B2: M. smegmatis OctT (Mycolicibacterium smegmatis MC2 155) (protein)
chain: MSSETSSESTGHRPVLLVFADSLSYFGPTGGLPADDPRIWPNIVGEQLGWDVELIGRIGWTCRDVWWAATQDPRSWAALPRAGAVVFATSGMDSLPSPLPTALREMIRYVRPPWLRRWVRDGYGWVQPRLSPIARSALPPHVTVEYLEMTRNAIDFNRPGIPVVASLPSVHIAETYGRAHHGREPTVRAITAWAEEHHVPLVDLKAAVADEVFGGRGNPDGIHWSFEAHRAVAELMLKGLAEAGVTQRDSAT
- Km (purified protein [6]): 0.03 ± 0.01 mM
- kcat/Km (purified protein [6]): 1430 ± 483 M⁻¹ s⁻¹
- Km (purified protein [7]): 19.0 ± 8.6 mM
- Km (purified protein [8]): 20.0 ± 3.6 mM
- kcat/Km (purified protein [8]): 1.83 ± 0.833 M⁻¹ s⁻¹

— PMC4555173, “Octanoylation of early intermediates of mycobacterial methylglucose lipopolysaccharides” (Scientific Reports, 2015)
